How the values were obtained:
[1] = target: T1, RidA (Salmonella enterica, UniProt Q7CP78); experiment: semicarbazone competition assay, absorbance at […] nm; format: biochemical; details: imine generated in situ by L-amino acid oxidase from 10 mM L-methionine; 10 uM RidA, 50 mM potassium pyrophosphate pH 8.7, 23 °C
T1 construct: full-length RidA; purification and tag not described here
T1 sequence (Q7CP78 1-128): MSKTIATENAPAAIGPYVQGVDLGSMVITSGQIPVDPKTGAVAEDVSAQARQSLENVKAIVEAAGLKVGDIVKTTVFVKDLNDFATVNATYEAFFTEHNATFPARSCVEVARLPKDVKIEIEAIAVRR

[2] = substrate: NC=CC(=O)O; experiment: purified protein; format: biochemical, Escherichia coli; details: 3-AA generated in situ by 5 uM RutB, varied concentration is ureidoacrylate, not 3-AA, spontaneous deamination not subtracted, 3 uM RutC, 40 mM Tris-HCl pH 8.2, 23 °C

Q: CSCCC(=N)C(=O)O [imino derivative of methionine] was tested. Which “semicarbazone competition assay, absorbance at 248 nm” value [1] did it give?
A: RidA showed activity primarily on the imino derivatives of methionine and leucine.

B1: RutC (Escherichia coli K-12) (protein)
chain: MPKSVIIPAGSSAPLAPFVPGTLADGVVYVSGTLAFDQHNNVLFADDPKAQTRHVLETIRKVIETAGGTMADVTFNSIFITDWKNYAAINEIYAEFFPGDKPARFCIQCGLVKPDALVEIATIAHIAK
Q: Which Km [2] does the source give for B1 here?
A: 9.1 ± 1.9 mM

Q: What about the Vmax [2] of the same molecule?
A: 31.9 ± 3.9 nmoles of NADPH consumed min^-1

Q: And the kcat [2]?
A: 0.867 s⁻¹
